Experimental findings from paper doi:10.1101/2024.06.26.600780 (bioRxiv, 2024) are described below.

In this assay the target is Green Fluorescent Protein (GFP), biotinylated (biotin (EZ-Link NHS-PEG4-Biotin)). Briefly: BLI.

B1: Nb394 (VHH)
VHH: QVQLVESGGGLVQAGGSLRLSCAASGRTFSVSNMGWFRQAPGKERVFVAAIGWTTGSTYYADSVKGRFTISRDNTKNTVYLQMNSLKPEDTAVYRCAARRRGYSRVPMTPDEYEYWGQGTQVTVSS
As to B1, the binding result is listed as “binds”.

B2: Nb207 (VHH)
VHH: QVQLVESGGGLVQAGGSLRLSCAASGRTFSTAAMGWFRQAPGKERDFVAGIYWTVGSTYYADSAKGRFTISRDNAKNTVYLQMDSLKPEDTAVYYCAARRRGFTLAPTRANEYDYWGQGTQVTVSS
Turning to B2, the binding result was “binds”.

B3: Nb395 (VHH)
VHH: QVQLVESGGGLVQTGDSLRLSCAASLRTFKSYAMGWFRQAPGKEREAVATISAEGDSTYYDDSVKGRFTISRDNAANTVYLQMNSLKPEDTAVYYCAASRFPYGLRLLQRRESDYWGQGTQVTVSS
Take B3: the binding result is listed as “binds”.
